B1: monoclonal antibody ‘F6’ secreted by clone BK6A2F6 (antibody)
heavy: EVQLQQSGPELVKPGASVKISCKASGYSFTGYFMNWVKQSHGKSLEWIGRINPYNGDTFYNQKFKGKATLTVDKSSSTAHMELLSLTSEDSAVYYCGSYYYGDYFDYWGQGTTLTVSSAKTTPPSVYPLAPGSAAQTNSMVTLGCLVKGYFPEPVTVTWNSGSLSSGVHTFPAVLQSDLYTLSSSVTVPSSTWPSETVTCNVAHPASSTKVDKKIVPRDCGCKPCICTVPEVSSVFIFPPKPKDVLTITLTPKVTCVVVDISKDDPEVQFSWFVDDVEVHTAQTQPREEQFNSTFRSVSELPIMHQDWLNGKEFKCRVNSAAFPAPIEKTISKTKGRPKAPQVYTIPPPKEQMAKDKVSLTCMITDFFPEDITVEWQWNGQPAENYKNTQPIMDTDGSYFVYSKLNVQKSNWEAGNTFTCSVLHEGLHNHHTEKSLSHSPGK
light: […]
B2: monoclonal antibody ‘H6’ secreted by clone BK6A2H6 (antibody, V domains shown)
VH: EVQLQQSGPELVKPGASVKISCKASGYSFTGYFMNWVKQSHGKSLEWIGRINPYNGDTFYNQKFKGKATLTVDKSSSTAHMELLSLTSEDSAVYYCGSYYYGDYFDYWGQGTTLTVSS
VL: SIVMTQIPKFLLVSEGDRVTITCKASQSVSNDVAWYQQKSGQSPKLLIYYASNRYTGVPDRFTGSGYGTDFTFTISTVQAEDLAVYFCQQDYSSPLTFGAGTKLELKR
B3: monoclonal antibody ‘18A2’ derived from hybridoma 18A2 (antibody, V domains shown)
VH: DVQLQESGPGLVKPSQSLSLTCSVTGYSITSGYYWNWIRQFPGNKLEWMGYISYDGSNNYNPSLKNRISITRDTSKNQFFLKLNSVTTEDTATYYCARWEGTTDYWGQGTTLTVSS
VL: not shown
notes: Mouse hybridoma antibody

Columns and labels:
[1] = biological target: T1, virus-like particles (VLPs) of BK polyomavirus VP-1 protein, serotype IV (BK virus (BKPyV), serotype IV, UniProt P14996 1-362); assay: ELISA on coated VLP; supernatant 1/10 240
T1 construct: native VLPs; also called VLP IV
T1 chain: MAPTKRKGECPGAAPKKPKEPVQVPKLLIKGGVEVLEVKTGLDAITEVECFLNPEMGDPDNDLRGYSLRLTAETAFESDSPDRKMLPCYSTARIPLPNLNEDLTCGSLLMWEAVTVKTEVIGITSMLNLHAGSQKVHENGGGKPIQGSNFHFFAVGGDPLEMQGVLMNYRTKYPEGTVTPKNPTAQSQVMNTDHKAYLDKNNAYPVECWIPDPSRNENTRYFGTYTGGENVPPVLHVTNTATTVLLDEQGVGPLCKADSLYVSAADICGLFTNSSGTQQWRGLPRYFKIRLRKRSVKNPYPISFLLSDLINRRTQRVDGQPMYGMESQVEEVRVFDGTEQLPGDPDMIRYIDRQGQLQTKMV
Protocol: (§1) To do this, the VLPs produced were deposited at a concentration of 1 μg/mL in PBS and incubated overnight at +4° C. The wells were then blocked for 1 h at +37° C. with a PBS/FCS (phosphate-buffered saline/fetal calf serum) mixture. After dilution in a dilution buffer containing FCS, PBS and Tween® 20, the various hybridoma culture supernatants were added for 1 h at +37° C. The wells were washed four times in a row with Wash Buffer and a secondary anti-mouse antibody coupled to peroxidase was added to the 1:2000 dilution for 1 h at +37° C. The wells were washed four more times and the substrate (OPD (ortho phenylene diamine)+H₂O₂) was added for 30 min at room temperature. A stop solution (H₂SO₄ 4N) was then added and each well was read by measuring the absorbance at 492 nm with a spectrophotometer. The value obtained for the average of the control wells (PBS in the first step) is subtracted from the optical density values obtained for each well.

[2] = biological target: T2, virus-like particles (VLPs) of BK polyomavirus VP-1 protein, serotype II (BK virus (BKPyV), serotype II, UniProt P14996 1-362); assay: ELISA on coated VLP; supernatant 1/10 240
T2 construct: native VLPs; also called VLP II
T2 chain: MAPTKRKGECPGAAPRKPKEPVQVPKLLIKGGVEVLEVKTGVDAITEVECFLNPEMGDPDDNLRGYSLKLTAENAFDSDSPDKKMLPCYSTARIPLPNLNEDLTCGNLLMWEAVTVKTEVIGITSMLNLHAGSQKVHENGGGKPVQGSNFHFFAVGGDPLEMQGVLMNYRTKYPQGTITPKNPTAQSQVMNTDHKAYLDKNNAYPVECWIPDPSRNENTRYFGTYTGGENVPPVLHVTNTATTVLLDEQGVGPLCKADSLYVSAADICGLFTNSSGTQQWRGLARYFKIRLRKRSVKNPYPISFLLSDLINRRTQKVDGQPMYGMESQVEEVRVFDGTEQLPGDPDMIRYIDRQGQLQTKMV
Protocol: as §1

[3] = biological target: T3, virus-like particles (VLPs) of BK polyomavirus VP-1 protein, serotype Ib2 (BK virus (BKPyV), serotype Ib2, PA …, UniProt P03088 1-362); assay: ELISA on coated VLP; supernatant 1/10 240
T3 construct: native VLPs; also the immunogen; also called VLP Ib2; BK Ib2
T3 chain: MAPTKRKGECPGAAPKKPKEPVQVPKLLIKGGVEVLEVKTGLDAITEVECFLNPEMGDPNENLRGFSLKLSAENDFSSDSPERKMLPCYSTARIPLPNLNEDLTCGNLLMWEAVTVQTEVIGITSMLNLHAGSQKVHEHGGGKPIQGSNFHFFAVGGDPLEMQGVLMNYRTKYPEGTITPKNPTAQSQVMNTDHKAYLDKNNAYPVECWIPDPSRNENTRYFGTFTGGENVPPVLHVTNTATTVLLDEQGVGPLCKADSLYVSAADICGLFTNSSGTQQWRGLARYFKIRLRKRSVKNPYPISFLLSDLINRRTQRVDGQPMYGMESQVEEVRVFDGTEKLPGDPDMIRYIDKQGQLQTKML
Protocol: as §1

[4] = biological target: T1, virus-like particles (VLPs) of BK …; assay: ELISA on not denatured VLP (threshold OD>0.5)
Protocol: (§2) The wells were then blocked for 1 hour at +37° C. with a PBS/SVF mixture. After dilution in a dilution buffer containing SVF, PBS and Tween® 20, the individual culture supernatants or purified antibodies were added for 1 hour at +37° C. The wells were washed four times in a row with Wash Buffer and a secondary anti-mouse peroxidase antibody was added to the 1/2000 dilution for 1 hour at +37° C. The wells were washed again four times in a row and the substrate was added for 30 minutes at room temperature. A stop solution was added and then each well was read by measuring the absorbance at 492 nm with a spectrophotometer. The value obtained for the average of the control wells (PBS in the first step) was subtracted from the optical density values obtained for each well (detection threshold: OD>0.5).

[5] = biological target: T2, virus-like particles (VLPs) of BK …; assay: ELISA on not denatured VLP (threshold OD>0.5)
Protocol: as §2

[6] = biological target: T3, virus-like particles (VLPs) of BK …; assay: ELISA on not denatured VLP (threshold OD>0.5)
Protocol: as §2

[7] = biological target: T4, virus-like particles (VLPs) of BK polyomavirus VP-1 protein, serotype Ia (BK virus (BKPyV), serotype Ia, UniProt P03088 1-361); assay: ELISA on not denatured VLP (threshold OD>0.5)
T4 construct: self-assembled native VLPs coated on ELISA plates; also called VLP Ia; BKV VP-1, serotype Ia
T4 chain: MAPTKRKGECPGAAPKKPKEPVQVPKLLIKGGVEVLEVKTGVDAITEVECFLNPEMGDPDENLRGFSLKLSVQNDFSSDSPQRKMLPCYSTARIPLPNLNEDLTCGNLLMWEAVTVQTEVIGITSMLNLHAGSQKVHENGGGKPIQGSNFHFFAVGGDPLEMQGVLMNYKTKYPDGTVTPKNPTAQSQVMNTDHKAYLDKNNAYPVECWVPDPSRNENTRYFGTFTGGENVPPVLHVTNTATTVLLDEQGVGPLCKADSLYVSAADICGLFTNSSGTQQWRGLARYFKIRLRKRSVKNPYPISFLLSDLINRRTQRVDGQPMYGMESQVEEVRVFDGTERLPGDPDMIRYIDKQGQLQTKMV
Protocol: as §2

[8] = biological target: T1, virus-like particles (VLPs) of BK …; assay: ELISA on coated VLP; supernatant 1/20
Protocol: as §1

[9] = biological target: T2, virus-like particles (VLPs) of BK …; assay: ELISA on coated VLP; supernatant 1/20
Protocol: as §1

[10] = biological target: T3, virus-like particles (VLPs) of BK …; assay: ELISA on coated VLP; supernatant 1/20
Protocol: as §1

[11] = biological target: T4, virus-like particles (VLPs) of BK …; assay: ELISA on coated VLP; supernatant 1/20
Protocol: as §1

[12] = biological target: T1, virus-like particles (VLPs) of BK …; assay: ELISA on coated VLP; supernatant 1/320
Protocol: as §1

[13] = biological target: T2, virus-like particles (VLPs) of BK …; assay: ELISA on coated VLP; supernatant 1/320
Protocol: as §1

Binder | OD 492 nm [1] [OD] | OD 492 nm [2] [OD] | OD 492 nm [3] [OD] | OD 492 nm [4] [OD] | OD 492 nm [5] [OD] | OD 492 nm [6] [OD] | OD 492 nm [7] [OD] | OD 492 nm [8] [OD] | OD 492 nm [9] [OD] | OD 492 nm [10] [OD] | OD 492 nm [11] [OD] | OD 492 nm [12] [OD] | OD 492 nm [13] [OD]
B1 | 0.48 | 0.08 | 0.08 | 0.788 | 3 | 2.7 | 3.94 | 3.16 | 1.65 | 1.22 | 3.23 | 3.16 | 0.16
B2 | 0.17 | 0.06 | 0.06 |  |  |  |  | 3.21 | 0.86 | 0.82 | 3.06 | 2.66 | 0.13
B3 |  |  |  | 2.99 | 1.71 | 0.565 | 3.84 |  |  |  |  |  | 
